Source: article PMC3821618

Target: TagRFP-T (Entacmaea quadricolor)
Test: fluorescence correlation spectroscopy (FCS), molecular brightness analysis; live transfected mouse GHFT1 cells, cytosol; molecular brightness Mb = CPS/(N*Po) from one-component autocorrelation fits, compared with published intrinsic brightness and between FP alone and FP-BZip; 561 nm excitation, 36 °C, 5% CO2

fraction of the molecules that are dimers: 30%
Substance: TagRFP-T
